experiment: protease stability score; higher = more stable; yeast display proteolysis, trypsin and chymotrypsin;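 also: relative to predicted unfolded state with 0 unfolded-like and 1 meaning tenfold more protease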

| Sequence | protease stability score |
| --- | --- |
| SEEKKFLEKAHREILHLYKTGDEDRMSELADPDVRMRLVINGQERHHHGREEFERVFREMLDRFGVKHVEDEDSDLVNGQVHIKGTERFNGKEVRFNIIIVWVDGRVHMLSVEYR | 0.264 |
| DEEQEIMEHILEELLRIDWTGDEHVLERLLDPNMQLEFNGVRLVGMEEVQRWLRRFLTEIRIHDFKVHDFHSFNGRLHSDVEVDFQVNGQRHITRVRLNLEVINGVVHRVEVRHE | 2.17 |
| DHQEESRSKFLNDILRIQRTGDFEKIYENVDPDVRIHIGDKEWHGREQATKVLTEWRVEHFDLKSMHIQGDKVHIHGHMIYNINGQERRSDIEIVLLKFNGRWFIHSMRID | 1.67 |
| DKEEEDVKKFTDEFIHHYLTGDWEKIRELADPNVRLIVGDKTLHGRELFIDWLRDELRRIDHIEHHVHRMSVINGKVHIDAELRIYINGRLHQTRIEIHLVIIDGRMRMVELRFR | 2.13 |
| DEDTNLLREFVRLLSEALKTGDEDTLRTLFDPHVRFIIGDKDLVGREAFHFFLERFDVIRSVELHNYDHYGDKVTLDTRQVIHVNGQDIRIHSHIVVTKVNGRWRLESVKFK | 1.25 |
| DELEELAEKIIRRLSELLLTGDFRELERFADPHTRVDINGKEFHGREFFSKLWLEMVRRFDHIEVHVHHMEIQGDKVFIDSRLHLLQGDKKEDREVLFILRKIDGRWILTVWKIR | 2.32 |
| DELREHVEEVMRWFFERIKTGDEENFHKMADPDARLQVGDKNVHGRENVLKEWRRHREEIRIEDMKIRELHVIGNYAYLDIHVDITYNGKRKETRVELRVVVIDGRIEHIEIRIN | 0.439 |
| DEWREHMEKLADDFSHAMLTGNEESMDKFLDPHTRSIVNGVERHGREAFRIWINQIDHIRDVEFRHVDTQGNKIRSHTRFHGEVNGRRYIVEIEVILHVIDGRVKSVEIRNL | 1.38 |
| DEDEELIEKLLRLEEFAHKTGDERIMEELADPNTRLDINGRREHGMESFIRWLREARYTHFIWRDKIEIGEKMEIQGEVEGTYNGVRHRTEVILFVEKINGRWIIKEIEVR | 1.76 |
| SEEERDIRHSIEMLFYYFETGDWREWERLADPRARLIIGEKEHHGREELSRSLKELLDRLGVDHYEIKDKRSEIIDGRVNLHVRGHLHVNGRNQHVIVIMVAIKIDGRWLLESLEIRLH | 1.3 |
| SEENEVIHRVIYYWIRAMKTGDEHLVSRLFDPNARHEIDGVDHVGWEEILKFFRRFDHLHHFHVNHIESHGDKIILDGRVDGEVNGQHLRFHVEIISLKVNGRWINQSEHVH | 1.81 |
| EEEKRISDRSLEHLVRSWWTGDEQLYTELADPNVRVEIGDKEYHGREDARHALRRELEHIRIKHIVYRRFEFVGEYIHVDTRMLVDVNGVHILRTMHILEFKFDGRWHLTSLIIR | 1.21 |
| DEDEKHARDLMKLWQLAMFTGDEDTLKRLVDPDMRLKYGEFELHGREDLLRFFKHWRLESRLETTDVRFQGDKLVAYGVRRHVSHIDGVEVEETRRVITYILKVDGQWYVKSVEIR | 1.67 |
| DEQEEHLHEMVRRFLHHFLTGDWKTLHRMFDPNARYHINGQDHVGREEINRFWREHWEHARIHDLRIKSVELFENRSHIIGHLDGNIDGKEVRTDVEIILVIVNGRVRYIEVRQH | 1.52 |
| DHEDRLAEEIARFIYHYWETGDEEEISDLFDPHVRVEININGKRIEKVGREHFYHWFHYWRERFKNLKINFKRLDPVNGKVHVETRVHQGDKERRMILEFDVVNGRIRVFRMEVHEN | 2.5 |
| HEDRKLEREIAEEMVKLWLTGDETRFEQLADPHVRVEDGDKESHGRENFSKLVRHRKTEFGIDHIEVEDIRVYDGRVEIRVRMEIGEKETHVRIIQVVINGRLKSVHLHFR | 0.771 |
| SEEFEILFRLLEELDRAFETGDFKRFMELADPHTRLDVGEFHHWGREKVLEFWRHWRVKHVRVEFKRIDYQGDKLHTDGILRHTGEINGQETHEETRTNIHLIVINGRMHALEVRII | 2.01 |
| SEEEDYMRELAERFLHAFITGDWQFIYKMFDPRVRWNVDGQNFVGREQLVHHLEKIKREMRVRHFELKDIKIIDGVSFINGRVDTTYGDKSSEHEVHISLVLIDGRVKHVQIRLE | 2.34 |
| DESREIAHKFLEIWIDAFKTGDEDLNSELLDPNTRRDVGDFRIHGMELIVKIMSKELEKYKGITFRVKIRHSTWQGDKIHLIVDILIIIGDKEERIETHFILEKIDGRWITTHMQIR | 1.34 |
| DEEEEELHRLSRLILHLLLTGDWEKLADLADPHMRFEMVVGDKNEEFHGRERWLKFLRMVREKFKGMRIHLQDERVYGDKNDLDIVLNVNGQRHKVHLHLVVVDGVIKEIKIKVE | 2.18 |
| SEEEHLAREMTELHKQAELTGDEHFLNELMDPHVRIDINGVPAIGWEESNEVLKRIWEEMRIDDIRPTHVELQGNKIHVHVQSHITIDGQRRIFHERIVIVVFNGRMREVKFDIH | 1.19 |
| SESEEASEWVIKIWRDTMETGDEKTLNHLLDPSVRLVVNGQEIHGRESMIKEFRRFKNVKLHDIKHHDIDMIGDKIIIHGTIHGEINGREVTVEQEIISIKVNGKWLTRSLILH | 1.64 |
| DEDDELAERFFRFWLEFVLTGDEDSSSHLLDPDVRTKYNGVDFHGMESHSKLLLELRIKDFRFTRIRIINGRLEIHGRMHQEIDGKKVDTTVTIDSIKINGKWRVKTINIG | 1.73 |
| SEEEEATKEMSRLVLENLKTGDFDAFHRLFDPNAKLDVGDKHFHGREQIHEWYLHVREELGVDVSRVHEKHIQVIGNKVILHGELHLRIGDKRDDTTMWIVSKKFDGRWILSSMRIS | 1.32 |
| NEDDKHAKHLLDLLIRTFITGDEHTLMNLLDPHTRYHQGEKELHGMEMLLHVERHHGATVHHFHVKSVRVIGDKIQFHVHVDHTIDGKRIRTDIDLWMEKVDGRWIVREIRIH | 0.815 |

— the NTF2 design screens of Basanta et al. (2020)
